From the supplement of paper PMC9170038

The sequences below were run on K4 kissing-loop RNA reporter (assay: apparent KD of K4 kissing-loop reporter; higher = weaker reporter binding). Details: Eterna round: R107; input ligand: theophylline 20 uM.
Description: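 RNA-MaP round R107: designed RNA switches with theophylline, tryptophan, arginine or FMN aptamers are transcribed on-chip within common flanks. They are titrated with a labelled K4 kissing-loop RNA reporter in RNA-MaP buffer (100 mM Tris pH 7.5, 80 mM KCl, 4 mM MgCl2), without ligand or with the indicated ligand. Median apparent KD per design.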
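Also: bound reporter read as fluorescence of individual clusters on recovered sequencing chips by microscopy, with normalized cluster intensities fitted with a binding model.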

Row | Sequence | apparent KD of K4 kissing-loop reporter
1 | UUAAUAUUGUCGGCCGCCACUGUUUAGUAUUUUGUAUAAUCUAUUUCAAAGUGAUGUUUUGAUUCCAGGACCGGGACAUUUGAUA [JR_Nu_ExcTryptoB_Sub031] | 486 nM
2 | UGAUACCAGACUGAUACCAGCUAGUGAUGUUAGCUGAAAUCAGGGUCAAAGACCCUGUCUGGCCCUUGGCAGCAGUCUGGUAUCU [TheoBX 18 #SwitchBubble #StaticStem] | 73.2 nM
3 | GCGCGGGAGUGAUGUUCCAAGUGGUGUUAACGAGGACCGGUACGGCCGCCACUCGUUACGGCCGGGCCGUAGGAUACACUGGCGC [Same State - Tryptophan A (Freestyle 16)] | 471 nM
4 | GCCUAGCAGGGAAGGAGCGCCAUAUAAUUAAAAGGUAAUUAAUGAGUGAUGUUCAAAUAAUGGCAGGUAGGUCGCCCUGCUAGGC [KL-SSArg B10] | 354 nM
5 | AGACCACAAAGUGGUCAGUGUUCGCUGCAGCGAGGACCGGUACGGCCGCCACUCGCGAGUGAUGUUCGCGAGCGCAGCGAACACA [Omei KL Tryp A Exc A v5] | 75.6 nM
6 | GCGAACAUUCGCAGUGAUGUUGCGACGGAAGGAGCGCGUGAAAACGCAGGUAGGUCGCCGACAUACUUAAUUUUACAGUGUUCGC [Arginine A K4 29] | 247 nM
7 | UUGUGCAGCAAACGAGUGAUGUUCGACGAUACCAGCCUCGAUAGAGGCCCUUGGCAGCGUAAUAAUCACAGCCAAGGGCUGCACU [#SwitchBubble 4] | 774 nM
8 | GUGCAAAGCACCGGCACGAGCAGCCUAAAGGAGGAUAUGACGAAAGUCAGAAGGCCUAGUGAUGUUAGGCCUUGCUUGAGUCGAA [Omei KL FMN A Exc B v1] | 183 nM

Same assay, conditions: Eterna round: R107; input ligand: tryptophan 2.4 mM

Row | Sequence | apparent KD of K4 kissing-loop reporter
9 | CGCAAGCAGCCAGUGAUGUUGGCCGCCUUGCGAGGACCGGUACGGCCGCCACUCGAAGGCGGCUACUGGUAAUCCGUCUAACGGA [Lareus] | 89.9 nM
10 | AAACGUUGGUCGGAUACCAGCUUGAUCGGAAAACGAUCUGCUGGAGUGAUGUUCCAAUAAAGCCCUUGGCAGCCGACCGACGAAA [MAT - Same State Theophlline B - Mod of Eli - D15] | 747 nM
11 | GCCUACGAUGCAGGAUAUAGCUCGCGAGUGAUGUUCGCAGCUGUAUGGUAGUAAACUUCCACGUGUCUAGAAGGGCAUCGUAGGC | 90.7 nM
12 | AAAUUCUUUUUUUUAUUUAACUUUUCAGAAGGAGCGUGGUAGUACACAGGUAGGUCGCUGAAUUUUGGGCUAGUGAUGUUAGUUA [whbob_SS_Arginine_A_sa113] | 193 nM
13 | UCCGUUGCGGCGGCCGCCACUGACUUAUUGAUUAGGUUGCCAGUGAUGUUGGCCACCGGUCAAUACAGGACCGGGCCAUAGCGGG [Retive] | 110 nM
14 | GUCCCAGUGAUGUUGGUAGGCGAGCGGGAUACCAGCCAAGACUCAGGCCCUUGGCAGCCCACAUAUCCCACGUAGGGAUUAGCUC [Same State - Theophylline A (Freestyle 19)] | 173 nM
15 | AAUUCCUGUUAUGAUACCAGAAAUCACAGCAACCUGCCUACCUAGUGAUGUUAGGAGAAUUUCCCUUGGCAGCAUCGACUGAAGG [theeternabot_sameState_KL_Theo_B_38] | 124 nM
16 | UGACUGGACUGAAGGAGCGAGCGAGACAAAGUCUCGAAAAUUCAGUGAUGUUGAAAUAUAACUCAGGUAGGUCGCAGUCUAGUCU [ArgBS 4 #SwitchBubble #StaticStem] | 304 nM
17 | AAUAUACAGGGAAGGAGCGCCGUCCAGUGAUGUUGGAGUUAAAUACCAGUGAUGUUGGUUAGGCAGGUAGGUCGCCCUAAAGUAU [Exclusion Arginine B Gf 2] | 96.7 nM
18 | CGUGAAGACCAGAGGUGAUGUAUAGUAUCGCGAGGACCGGUACGGCCGCCACUCGUGAAGAGAAAGGAGUGAUGUUCCGUAAUGG [C12] | 107 nM
19 | AAACGUCGGAAGUGAUGUUGAUGACGUAGUAAGGAUAUUGGACGCGCAAGAAGGUACUGGCAAACUAAGGACAUCCUGGAUAUUC [theeternabot_exclusion_KL_FMN_A_47] | 254 nM
20 | GCACGUACCCGAAGGAGCGUGCAAGAAUCGUAGUGAUGUUACGGAGAGUGUCACGCCGUCGCACAGGUAGGUCGCGGGUACGUGC | 61.4 nM
21 | UAGACCUACUCAGGAUAUCCGCAGUGAUGUUGCGGUUGGCCUGAGCGACAUGAAAAUCUUACUAAAGGAGAAGGGAGAGGGUUAC [Ratiteus] | 88.4 nM
22 | UAUAUAUGAUGUGAUACCAGUGAAGAGCCAGUGAUGUUGGUAGAACUGGUAUAUAAAUAACACCCUUGGCAGCACAAUCACGUAU [whbob_Ex_Theo_B_sa97] | 164 nM
23 | UUCAGGUGUUCGGCCGCCACUCCAGUGAUGUUGGAGUGGCUUCACAAGGGCCAGGACAAUGUAGGGAGGACCGGGAAUAUCGCAG [Atvebeance] | 125 nM
24 | UGGAGUUGACGAAAAGUCAACUCCUGAGAAGGAGCGGACGAAAGUCCAGGUAGGUCGCUCACUAGCAGUGAUGUUGCUACAUAAA [#OpenEnded 2] | 208 nM

Row | Sequence | apparent KD of K4 kissing-loop reporter
25 | CACUUACGUAGUGAUGUUACGAUCUCUGAUACCAGACAACUCUAAGUCCCUUGGCAGCAGUCAUUUUGCUUAUAAUUUACUCAAA [JR_ExcTheophyA_Sub015] | 508 nM
26 | GGAUUGCCAGUGAUGUUGGCAUAAACUGAAGGAGCGCGUGAAAACGCAGGUAGGUCGCAGAACCUUGCCAACUGAUCGAAAGAUC [Ex Arginine A K4 29] | 106 nM
27 | GCGCGUCAUGUCAGCGGUGCCUAUGUCGAUACCAGCGCCGCAAGGCGCCCUUGGCAGCGACGCGCUGGAGUGAUGUUCCAGCGUG [#2 Exclusion - Theophylline A Attempt #11 (HarryS)] | 132 nM
28 | UGUAUCAUCUAAGGAUAUAUCAUGUGAUGCACCGAGUAUCGCAUCAAUUCUGAGUGAUGUUCAGGUAUAGAAGGUAGAUGAUGCA [FMN B SS t2] | 228 nM
29 | AAACAUCACUGGGAGUGAUGUUCUCAGUGACGAGGACCGGUACGGCCGCCACUCGCGAGAGAUCUAGUCUAGUCUUGACUGCAUU [Excl Tryptophan A V13] | 333 nM
30 | AUUUUUUUGUCAGGAUAUUAGUAUGCAUUUAGUUUGUUAGUGAUGUUGAUAUUUUGUUUAUGUAUUUAAGAAGGGAUUUAGCGGU [iiikmullin] | 306 nM
31 | AUCACAGUGAUGUUGUGAUAUGGUACAGAUACCAGACUAGUGCUAGUCCCUUGGCAGCUGUACUCAGCAGCACCACUAGCACUCG [Theo A Ex t6b] | 128 nM
32 | CGAGUGAUGUUCGUUCGUUUAUUUCUUUGACAGGAUAUGCGGAAACGCAGAAGGGUCACCUUUGAGUUAAAGGAAUUUACGUUAU [Ex FMN A 26] | 483 nM
33 | UUAAUAUUGUCGGCCGCCACUGUUUAGUAUUUUGUAUAAUCUAUUUCAAAGUGAUGUUUUGAUUCCAGGACCGGGACAUUUGAUA [JR_Nu_ExcTryptoB_Sub031] | 298 nM
34 | UGAUACCAGACUGAUACCAGCUAGUGAUGUUAGCUGAAAUCAGGGUCAAAGACCCUGUCUGGCCCUUGGCAGCAGUCUGGUAUCU [TheoBX 18 #SwitchBubble #StaticStem] | 71.2 nM
35 | GCGCGGGAGUGAUGUUCCAAGUGGUGUUAACGAGGACCGGUACGGCCGCCACUCGUUACGGCCGGGCCGUAGGAUACACUGGCGC [Same State - Tryptophan A (Freestyle 16)] | 415 nM
36 | GCCUAGCAGGGAAGGAGCGCCAUAUAAUUAAAAGGUAAUUAAUGAGUGAUGUUCAAAUAAUGGCAGGUAGGUCGCCCUGCUAGGC [KL-SSArg B10] | 283 nM
37 | AGACCACAAAGUGGUCAGUGUUCGCUGCAGCGAGGACCGGUACGGCCGCCACUCGCGAGUGAUGUUCGCGAGCGCAGCGAACACA [Omei KL Tryp A Exc A v5] | 114 nM
38 | GCGAACAUUCGCAGUGAUGUUGCGACGGAAGGAGCGCGUGAAAACGCAGGUAGGUCGCCGACAUACUUAAUUUUACAGUGUUCGC [Arginine A K4 29] | 194 nM
39 | UUGUGCAGCAAACGAGUGAUGUUCGACGAUACCAGCCUCGAUAGAGGCCCUUGGCAGCGUAAUAAUCACAGCCAAGGGCUGCACU [#SwitchBubble 4] | 560 nM
40 | GUGCAAAGCACCGGCACGAGCAGCCUAAAGGAGGAUAUGACGAAAGUCAGAAGGCCUAGUGAUGUUAGGCCUUGCUUGAGUCGAA [Omei KL FMN A Exc B v1] | 151 nM
